# Results reported in IntAct's records for PubMed 8840966.
# B1: Cyclin-dependent kinase 4 inhibitor C (Homo sapiens), P42773 (parent)
# chain: MAEPWGNELASAAARGDLEQLTSLLQNNVNVNAQNGFGRTALQVMKLGNPEIARRLLLRGANPDLKDRTGFAVIHDAARAGFLDTLQTLLEFQADVNIEDNEGNLPLHLAAKEGHLRVVEFLVKHTASNVGHRNHKGDTACDLARLYGRNEVVSLMQANGAGGATNLQ
# Variants of: B1
# Conditions: with cdk6_human CDK6, Q00534
# Sequence of cdk6_human CDK6, Q00534 (Q00534 whole entry): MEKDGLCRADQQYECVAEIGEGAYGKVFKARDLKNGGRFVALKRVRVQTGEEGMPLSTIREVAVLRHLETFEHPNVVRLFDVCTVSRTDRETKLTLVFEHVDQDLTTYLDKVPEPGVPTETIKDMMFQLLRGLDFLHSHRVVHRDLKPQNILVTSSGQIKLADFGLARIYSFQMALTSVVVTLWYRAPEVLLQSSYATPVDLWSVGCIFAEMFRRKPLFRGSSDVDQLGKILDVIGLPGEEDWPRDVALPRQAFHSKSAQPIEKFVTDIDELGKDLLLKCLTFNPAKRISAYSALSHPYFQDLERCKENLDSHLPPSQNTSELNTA
row,effect of a mutation on the interaction,Variant
1,disrupting interaction,MAEPWGNELASAAARGDLEQLTSLLQNNVNVNAQNGFGRTALQVMKLGNPEIARRLLLRGANPDLKDRTGFPVIHDAARAGFLDTLQTLLEFQADVNIEDNEGNLPLHLAAKEGHLRVVEFLVKHTASNVGHRNHKGDTACDLARLYGRNEVVSLMQANGAGGATNLQ [A72P]
